Laboratory results from patent US9532956B2, “PH sensitive biodegradable polymeric particles for drug delivery” (Massachusetts Institute of Technology, priority 2009, dated 2017).

Tested on: Red blood cells (RBCs)
Conditions: pH 7.4
Description: The red blood cells (RBCs) were separated from the whole blood or anticoagulant solution by centrifuging the whole blood at 800 rcf for 15 min. The supernatant was discarded and the RBCs were washed thrice with phosphate buffered saline (PBS). The stock of RBCs was prepared by mixing three volumes of the centrifuged RBCs with 11 parts of the phosphate buffered saline (PBS) with pH adjusted to 7.4, 6.5, or 5.4, and 100 μL of this stock was used for 1 ml of the sample. RBCs were mixed with Triton X-100 (1%, w/v) (positive control); with phosphate buffered saline (PBS) with pH adjusted to 7.4, 6.5, or 5.4 (negative control); and respective concentrations of amines, PLH and protamine at different pH (7.4, 6.5, or 5.4). Samples were incubated at 37° C. for 24 h on a tube shaker. The samples were centrifuged at 800 rcf for 15 min to separate intact RBCs. The supernatant was collected and kept for 30 min at room temperature to oxidize hemoglobin (Hb) and then the absorbance of Oxy-Hb was measured spectrophotometrically at 540 nm. The relative hemolysis efficiency was calculated as the percentage of released hemoglobin by the samples to that by Triton X-100. The percent hemolysis was calculated using the equation of a straight line, y=mx+c, where % hemolysis (x)=[optical density (y)−negative control optical density (c)]/[(positive control optical density−negative control optical density)/100] […]

| Molecule | % hemolysis versus pH |
| --- | --- |
| protamine | more hemolytic properties at physiological pH 7.4 |
| N[C@@H](Cc1c[nH]cn1)C(=O)N[C@@H](Cc1c[nH]cn1)C(=O)N[C@@H](Cc1c[nH]cn1)C(=O)N[C@@H](Cc1c[nH]cn1)C(=O)N[C@@H](Cc1c[nH]cn1)C(=O)N[C@@H](Cc1c[nH]cn1)C(=O)O [PLH, poly-L-histidine (PLH, 6-mer)] | maximum hemolytic properties at endosomal pH 5.4 |
